Our source for the Kd and stoichiometry N values is paper PMC4815241 (Protein Science : A Publication of the Protein Society, 2015).

In test [1] the target is eIF4GII_(551–745)/eIF4E complex (human | murine) (UniProt O43432). The test is described as follows: ITC. A general note: Isothermal titration calorimetry measures the heat released or taken up as one component is titrated into another.
For test [2] the target is unchanged. The test is described as follows: SEC-MALS. On the technique in general: In gel filtration, larger molecules generally elute earlier.

pKd: −log10 of the molar value.

Sequence of eIF4GII_(551–745)/eIF4E complex (human | murine) (O43432 551-745, chain 1 of 2): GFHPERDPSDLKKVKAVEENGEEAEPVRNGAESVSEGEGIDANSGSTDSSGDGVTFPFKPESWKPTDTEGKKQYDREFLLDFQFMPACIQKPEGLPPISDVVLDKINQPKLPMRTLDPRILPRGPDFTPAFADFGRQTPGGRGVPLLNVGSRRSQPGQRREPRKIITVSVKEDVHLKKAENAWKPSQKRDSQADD
Sequence of eIF4GII_(551–745)/eIF4E complex (human | murine) (P63073 whole entry, chain 2 of 2, further chain): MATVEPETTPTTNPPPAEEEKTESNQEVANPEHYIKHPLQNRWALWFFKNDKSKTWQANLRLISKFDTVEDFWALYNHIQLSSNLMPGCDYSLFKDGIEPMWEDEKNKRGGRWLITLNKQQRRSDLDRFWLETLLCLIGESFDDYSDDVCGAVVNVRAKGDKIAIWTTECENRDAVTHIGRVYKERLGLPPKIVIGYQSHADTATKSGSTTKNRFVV

For the substance “FMDV leader proteinase, shortened form, sLb^proC51A (FMDV residues 29–195) (enzyme)”, the pKd (as a rule, the negative decadic logarithm of the Kd, by convention in mol/L) in test [1] is 7.48. The stoichiometry N (commonly a count of units in the complex or per binding partner) in test [2] turned out to be 1.
